According to paper PMC7158967, “Comparative evaluation of ^68Ga-labelled TATEs: the impact of chelators on imaging” (EJNMMI Research, 2020):
Where two headings read alike, the source gives them in different places.

Tests used:
KM mice = conditions: mouse, in vivo
Description: Thirty KM mice were randomly divided into a control group, a ^68Ga- NOTA-TATE low-dose group (100 μCi) and a high-dose group (1 mCi). Each group contained 10 mice, half female and half male. The dose of the appropriate compound was administered through the tail vein at an administration volume of 0.2 mL. The animal blood routine, body weight and animal feed consumption were performed before administration and on days 4, 7, 14, 21 and 28 after administration. At the end of the observation period, the surviving mice were dissected, and histopathological examination was performed on the myocardium, liver, spleen, lung, kidney, stomach, intestine, gonad, bone, muscle and brain of each mouse.

[1] = type: in vitro ADME; conditions: human
Description: In vitro serum binding studies for both ^68Ga-labelled NOTA-TATE and DOTA-TATE were carried out by following a generalized procedure summarized below. One millilitre of fresh anticoagulated (heparinized) human plasma was prepared. Freshly labelled compound (3.7 MBq, 0.1 mCi) was added to three centrifuge tubes, each containing 0.1 mL of human plasma. After incubation at 37 °C for 2 h, 1 mL of ice-cold methanol was added to each tube. The mixtures were separated by centrifugation (5 min, 3000 rpm) to collect the supernatant, which was repeated three times. A gamma counter was then used to measure the radioactivity of the supernatant (A) and the precipitate (B) in counts per minute (CPM); the plasma-protein binding rate was calculated as PPB = B/(A + B)100%, and the average of three tubes was recorded.

healthy volunteers = assay: clinical; conditions: human, in vivo
Description: (§1) Twenty-two healthy volunteers gave informed consent and agreed to participate in the study. […] Each patient was injected with an average activity of 1.9 MBq/kg. The timing of image acquisition ranged from 30 to 45 min after injection (3 min/bed position). The PET image was attenuated and then reconstructed using the iterative reconstruction algorithm implemented.

clinical = conditions: human, in vivo, total radioactivity
Description: as §1

[2] = Biodistribution in AR42J tumour-bearing nude mice; conditions: mouse, in vivo; for tissue to tissue ratio at 0.25 h / tissue to tissue ratio at 0.5 h / tissue to tissue ratio at 1 h / tissue to tissue ratio at 2 h: both sexes, nude, iv, 0.1 mCi, total radioactivity
Description: (§2) Tumour cells were subcutaneously injected into the left forelimb of each nude mouse. Biodistribution and imaging studies were conducted when the tumour volume reached at least 1.0 × 1.0 × 1.0 cm^3.

[3] = Micro-PET/CT imaging of AR42J tumour-bearing nude mice; conditions: both sexes, mouse, in vivo, iv, 2.96 MBq, total radioactivity, nude mice bearing AR42J tumours, read-out: SUVmax, 3D micro-PET/CT
Description: as §2
Six (3 female and 3 male) mice with AR42J tumour xenografts (15–20 g) were used in the imaging study. All tumour-bearing mice were anaesthetized by intranasal inhalation of isoflurane. […] Images were acquired and reconstructed using micro-PET/CT at 30 min and 2 h after intravenous injection.

With `C[C@@H](O)[C@@H]1NC(=O)[C@H](CCCCN)NC(=O)[C@@H](Cc2c[nH]c3ccccc23)NC(=O)[C@H](Cc2ccccc2)NC(=O)[C@@H](NC(=O)[C@@H](Cc2ccccc2)NC(=O)CN2CCN(CC(=O)O)CCN(CC(=O)O)CC2)CSSC[C@@H](C(=O)N[C@H](CO)[C@@H](C)O)NC1=O` [^68Ga-NOTA-TATE, metal not drawn] the “acute animal toxicity, overall finding” value (KM mice) was “no apparent toxicity”, the histopathological examination (KM mice) was “no toxic pathological changes” and the fraction unbound at 2 h [1] was 0.879. For the same compound, the “SUVmax Adrenals, range” value (healthy volunteers) was 5.7~15.6, the “SUVmax Blood pool, range” value (healthy volunteers) was 0.9~1.6 and the “SUVmax Bone marrow, range” value (healthy volunteers) was 0.7~1.1. The “SUVmax Breast, range” value (healthy volunteers) was 0.5~1.1, the “SUVmax Kidneys, range” value (healthy volunteers) was 6.2~20.3 and the “SUVmax Large bowel, range” value (healthy volunteers) was 1.0~2.4. The “SUVmax Liver, range” value (healthy volunteers) was 1.3~6.3, the “SUVmax Lungs, range” value (healthy volunteers) was 0.3~0.9 and the “SUVmax Lymph nodes, range” value (healthy volunteers) was 0.8~1.4. For the same compound, the “SUVmax Palatine tonsil, range” value (healthy volunteers) was 0.6~1.8, the “SUVmax Pancreas, range” value (healthy volunteers) was 2.0~5.5 and the “SUVmax Parotid gland, range” value (healthy volunteers) was 0.7~1.3. The “SUVmax Pituitary gland, range” value (healthy volunteers) was 0.7~2.3, the “SUVmax Small bowel, range” value (healthy volunteers) was 1.4~2.5 and the “SUVmax Spleen, range” value (healthy volunteers) was 10.7~17.1. For the same compound, the “SUVmax Stomach, range” value (healthy volunteers) was 1.6~4.9, the “SUVmax Submandibular, range” value (healthy volunteers) was 0.7~1.4 and the “SUVmax Thymus, range” value (healthy volunteers) was 0.6~1.4. The “SUVmax Thyroid, range” value (healthy volunteers) was 1.2~2.5, the “radioactivity in the gallbladder” value (healthy volunteers) was “not seen” and the “side effects after administration” value (healthy volunteers) was “no apparent side effects”. The “uptake in the brain” value (healthy volunteers) was “No apparent”, the SUV (clinical; both sexes, 1.9 MBq/kg, SUVmax Adrenals, average) was 10.7 SUV and the SUV (clinical; both sexes, 1.9 MBq/kg, SUVmax Blood pool, average) was 1.4 SUV. The SUV (clinical; both sexes, 1.9 MBq/kg, SUVmax Bone marrow, average) was 0.9 SUV, the SUV (clinical; both sexes, 1.9 MBq/kg, SUVmax Kidneys, average) was 14.1 SUV and the SUV (clinical; both sexes, 1.9 MBq/kg, SUVmax Large bowel, average) was 1.5 SUV. For the same compound, the SUV (clinical; both sexes, 1.9 MBq/kg, SUVmax Liver, average) was 4.2 SUV, the SUV (clinical; both sexes, 1.9 MBq/kg, SUVmax Lungs, average) was 0.6 SUV and the SUV (clinical; both sexes, 1.9 MBq/kg, SUVmax Lymph nodes, average) was 1.2 SUV. For the same compound, the SUV (clinical; both sexes, 1.9 MBq/kg, SUVmax Palatine tonsil, average) was 1.3 SUV, the SUV (clinical; both sexes, 1.9 MBq/kg, SUVmax Pancreas, average) was 3.7 SUV and the SUV (clinical; both sexes, 1.9 MBq/kg, SUVmax Parotid gland, average) was 0.9 SUV. It also gave an SUV (clinical; both sexes, 1.9 MBq/kg, SUVmax Pituitary gland, average) of 1.5 SUV, an SUV (clinical; both sexes, 1.9 MBq/kg, SUVmax Small bowel, average) of 1.8 SUV and an SUV (clinical; both sexes, 1.9 MBq/kg, SUVmax Spleen, average) of 14.6 SUV. It also gave an SUV (clinical; both sexes, 1.9 MBq/kg, SUVmax Stomach, average) of 2.4 SUV, an SUV (clinical; both sexes, 1.9 MBq/kg, SUVmax Submandibular, average) of 1.2 SUV and an SUV (clinical; both sexes, 1.9 MBq/kg, SUVmax Thymus, average) of 1.1 SUV. The SUV (clinical; both sexes, 1.9 MBq/kg, SUVmax Thyroid, average) was 1.7 SUV, the SUV (clinical; both sexes, iv, 1.9 MBq/kg, SUVmax Breast, average) was 0.7 SUV and the SUV (clinical; iv, 1.86 mCi, SUVmax kidney, single volunteer) was 12.5 SUV. For the same compound, the SUV (clinical; iv, 1.86 mCi, SUVmax liver, single volunteer) was 1.4 SUV, the SUV (clinical; iv, 1.86 mCi, SUVmax pituitary, single volunteer) was 1.9 SUV and the SUV (clinical; iv, 1.86 mCi, SUVmax spleen, single volunteer) was 6.8 SUV. It also gave an SUV (clinical; iv, 3.83 mCi, SUVmax kidney, single volunteer) of 6.2 SUV, an SUV (clinical; iv, 3.83 mCi, SUVmax liver, single volunteer) of 1.3 SUV and an SUV (clinical; iv, 3.83 mCi, SUVmax pituitary, single volunteer) of 0.7 SUV. For the same compound, the SUV (clinical; iv, 3.83 mCi, SUVmax spleen, single volunteer) was 3.9 SUV, the tissue to tissue ratio at 0.25 h [2] was 12.5 and the tissue to tissue ratio at 0.5 h [2] was 8.45. The tissue to tissue ratio at 1 h [2] was 39.5, the tissue to tissue ratio at 2 h [2] was 44.3 and the tissue to tissue ratio at 0.25 h ([2]; 15 min postinjection, read-out: Tumour/kidney ratio) was 0.18. For the same compound, the tissue to tissue ratio at 0.5 h ([2]; 0.5 h postinjection, read-out: Tumour/kidney ratio) was 0.94, the tissue to tissue ratio at 1 h ([2]; 1 h postinjection, read-out: Tumour/kidney ratio) was 0.81 and the tissue to tissue ratio at 2 h ([2]; 2 h postinjection, read-out: Tumour/kidney ratio) was 0.79. It also gave a tissue uptake at 0.25 h ([2]; %ID/g Blood) of 3.25 ± 1.06 %ID/g, a tissue uptake at 0.5 h ([2]; %ID/g Blood) of 1.01 ± 0.42 %ID/g and a tissue uptake at 1 h ([2]; %ID/g Blood) of 0.58 ± 0.24 %ID/g. For the same compound, the tissue uptake at 2 h ([2]; %ID/g Blood) was 0.07 ± 0.06 %ID/g, the tissue uptake at 0.25 h ([2]; %ID/g Gallbladder) was 3.62 ± 1.94 %ID/g and the tissue uptake at 0.5 h ([2]; %ID/g Gallbladder) was 6.21 ± 2.69 %ID/g. The tissue uptake at 1 h ([2]; %ID/g Gallbladder) was 1.83 ± 0.84 %ID/g, the tissue uptake at 2 h ([2]; %ID/g Gallbladder) was 1.61 ± 0.67 %ID/g and the tissue uptake at 0.25 h ([2]; %ID/g Intestines) was 0.07 ± 0.04 %ID/g. It also gave a tissue uptake at 0.5 h ([2]; %ID/g Intestines) of 0.03 ± 0.02 %ID/g, a tissue uptake at 1 h ([2]; %ID/g Intestines) of 0.21 ± 0.09 %ID/g and a tissue uptake at 2 h ([2]; %ID/g Intestines) of 0.13 ± 0.07 %ID/g. For the same compound, the tissue uptake at 0.25 h ([2]; %ID/g Kidney) was 17.1 ± 6.39 %ID/g, the tissue uptake at 0.5 h ([2]; %ID/g Kidney) was 4.23 ± 2.73 %ID/g and the tissue uptake at 1 h ([2]; %ID/g Kidney) was 3.79 ± 2.16 %ID/g. The tissue uptake at 2 h ([2]; %ID/g Kidney) was 1.69 ± 1.02 %ID/g, the tissue uptake at 0.25 h ([2]; %ID/g Liver) was 1.19 ± 0.54 %ID/g and the tissue uptake at 0.5 h ([2]; %ID/g Liver) was 0.43 ± 0.23 %ID/g. It also gave a tissue uptake at 1 h ([2]; %ID/g Liver) of 0.07 ± 0.04 %ID/g, a tissue uptake at 2 h ([2]; %ID/g Liver) of 0.04 ± 0.02 %ID/g and a tissue uptake at 0.25 h ([2]; %ID/g Lungs) of 3.64 ± 1.56 %ID/g. For the same compound, the tissue uptake at 0.5 h ([2]; %ID/g Lungs) was 0.21 ± 0.17 %ID/g, the tissue uptake at 1 h ([2]; %ID/g Lungs) was 0.64 ± 0.41 %ID/g and the tissue uptake at 2 h ([2]; %ID/g Lungs) was 0.48 ± 0.21 %ID/g. It also gave a tissue uptake at 0.25 h ([2]; %ID/g Muscle) of 0.26 ± 0.03 %ID/g, a tissue uptake at 0.5 h ([2]; %ID/g Muscle) of 0.47 ± 0.26 %ID/g and a tissue uptake at 1 h ([2]; %ID/g Muscle) of 0.08 ± 0.06 %ID/g. The tissue uptake at 2 h ([2]; %ID/g Muscle) was 0.03 ± 0.01 %ID/g, the tissue uptake at 0.25 h ([2]; %ID/g Skeleton) was 2.14 ± 1.41 %ID/g and the tissue uptake at 0.5 h ([2]; %ID/g Skeleton) was 1.46 ± 0.37 %ID/g. The tissue uptake at 1 h ([2]; %ID/g Skeleton) was 0.85 ± 0.38 %ID/g, the tissue uptake at 2 h ([2]; %ID/g Skeleton) was 0.13 ± 0.07 %ID/g and the tissue uptake at 0.25 h ([2]; %ID/g Spleen) was 0.19 ± 0.08 %ID/g. It also gave a tissue uptake at 0.5 h ([2]; %ID/g Spleen) of 0.13 ± 0.11 %ID/g, a tissue uptake at 1 h ([2]; %ID/g Spleen) of 0.12 ± 0.06 %ID/g and a tissue uptake at 2 h ([2]; %ID/g Spleen) of 0.03 ± 0.01 %ID/g. The tissue uptake at 0.25 h ([2]; %ID/g Stomach) was 0.19 ± 0.13 %ID/g, the tissue uptake at 0.5 h ([2]; %ID/g Stomach) was 3.55 ± 1.83 %ID/g and the tissue uptake at 1 h ([2]; %ID/g Stomach) was 1.61 ± 1.03 %ID/g. It also gave a tissue uptake at 2 h ([2]; %ID/g Stomach) of 1.11 ± 0.21 %ID/g, a tissue uptake at 0.25 h ([2]; %ID/g Tumour) of 3.24 ± 1.03 %ID/g and a tissue uptake at 0.5 h ([2]; %ID/g Tumour) of 3.97 ± 2.24 %ID/g. It also gave a tissue uptake at 1 h ([2]; %ID/g Tumour) of 3.16 ± 1.92 %ID/g, a tissue uptake at 2 h ([2]; %ID/g Tumour) of 1.33 ± 0.96 %ID/g and an SUV at 0.5 h ([3]; 30 min after i.v. injection) of 3.02 SUV. The SUV at 2 h ([3]; 120 min after i.v. injection) was 1.64 SUV.
